# Measured values taken from the DeepSol protein solubility set.
# Experiment: soluble on expression in E. coli; label from the status in PepcDB or PDB records
row,Sequence,soluble on expression in E. coli
1,MGSDKIHHHHHHLAVMPFSPDQIIRPEILALSAYHVPPACGMIKLDAMENPYPLPPELRDEIAKLAGETPVNRYPDPDAAALKAALREALSIPDGMDIMLGNGSDEIIQIIALACGKPGAVLMSVEPAFVMFRMIATFASMNYVGVPLHPDFSLDAEAMLAAIARYQPAVIFIAYPNNPTGNLFDAVEISRIIDAAPGVVVVDEAYHAFADASFMDKLAHHPNLLLMRTLSKLGMAGLRLGLLAGKPEWLRQLEKLRLPYNVGIVTQRIAEKLLQHRDVLLQQAAAIKLERSSMSRRLAELEGIEVFPTDANFILFRLNQDHKATQVFQELKQRGILVKNLDGAHPLLKNCLRVTVGMPDENAQFLEVLQTLLVKVEAKA,not soluble
2,MGSDKIHHHHHHLDPFASPQNLDKELRSLLAQASSNLCDWFAESASQGPMPYSFELPEVYPAKEGVSNDVLLSELQLLMDGSYRPSHPGSLAHLDPPPLSASIAGELICAGLNNNLLADELSPSLSSLERNLCKWFCHKLGLGDLSGGVAASGGSLSNLMALVMARNNSGLETDPKAVFFASHDCHVSFSKAFRIMGLKQESLQKVSTDENGALNISSLRTSLNKIKSQGKKCFAVVATAGTTVRGAIDPLSEIAKFCKKENVWFHVDGSIGGIYGLSEMTSEIVQGLGFADSLTINPQKLLGIPKTSSLLLVANKNHLSSTFSTGLPYVEPISGNDFHGGELGIQGTRSAETLKLWIGLRQLGEEGIEKILLGSIKRRCYLESIIDRSKFKIISGPLHLLAFTPINYSSSQSSDWSLKTRNSLLANKFMLSRPMYGHRYYLKAVMGNPNTKFDDLKMLANLINHSIS,not soluble
3,MGSDKIHHHHHHLEAGMNYGVWNNKGGVGKSFLSFTLALEHAHRHPERKILLADMCPQANLSEIILGGNGKGNANLEARLAQDKRKTIGGYFDERIASPHQVTGNETSYLIAASDYNQELPDNVYLLCGDPSLELQAQVINQIGSQTLPADAWKNVHMWLKDLINACARQLGREGTSVFIDCNPSFSAYTELAIVASDRLILPCSCDGSSARAVHNVENLVFDGSAYYGDKSFSKMCERFGMALPVIHSVVLNRSTLYNKDASKAFSAMFDEIKRTANDFYKRSPGSFVAGGPAFMVMPDNHSVAIVSSHLGKPLYAIKPGKYQVYEVNPQINPEPLNRYKEAIEGMEAVLL,not soluble
4,MGSDKIHHHHHHLGFGAPKISNEEERLRALAEYRILGTQPEQCYDDITKIASLTCGTPISLMSLVDTDTQWFKSMCGFETKETSRDVSFCAHAIASSEPLIVEDALLDERFKSNPLVVEEPKIRLYAGFPLQTPNDQRIGTLCVIDRKPGHLSDHQHQIMEALSRQVVTLLELRKRSIRLLDALTHMHNTEGILTTCSYCKEVRDSDGEWQHLEKYLSKIADIRFSHGICDLCMEKHFPDVLEVWSDDKLDLNSKKNKPECKKSN,not soluble
5,MGSDKIHHHHHHLKQLLLDIQPPAAPSLDNFVTGRNAEALFQLRRTVLEHDDARFIYLWGETGCGKTHLIQACNALASASGLDMICVDDVHLLSNDDQVALFDLYNQLRESGGRLIVSGLAAPSQMGLRDDLATRLAWGLSYQLHPLSDEEKTQALKNHAEARGMKLPDEVLDYCLRHLRRDMPSLIATIDALDEWSLISKRAVTLPLLKQLLQTST,not soluble
6,MGSDKIHHHHHHLSIIEQYLSQAEALFQSKNYSSARMYARKVIKRDDKHLGALSLLGQIHLQQQQYNEAENYFATAAAVDPNAMPVLTGLLAIAEVKQDFFLAKTYLLQLINTQGNVETYQYKLGLVATKVGDMALAEQCFEWCVANDFSEPAVQLNLGHIYKAKGDTEKAANFYHQYNQLSPKQVGVGYWSLADLKQYRFSTDDLTLLQVFATDESLSKQNQALVYFALCKAYEQTQQIDKASESMLLANKIMTLHRPFKQAQFANIVLSLLGHTPSPHIDSLPTASQTPIFIVGMPRSGTTLVEQILACHTDVGATDELPFMERFALQMDMSGGYNARLSQLSASHIDQFRQRYLAEVNHYFSDAPTYVIDKNPNNFLHIGLIKTLFPQAKIINVVRNTVDNGLSVFKQFFSFGHDYSYSFAGISSYWQHYLDIMQHWDRLYPNEILHVCFEQLVREPESQIQRILDYCELTTQAQCFTFYESERAVLTPSASQVRQPMNLKAIGQADKYQAFIPEQIAELDAIAKKAALQFFG,not soluble
7,MGSDKIHHHHHHLSPEDYYGSNDFWNQKSQVEMFMTGIHADLRDKYQMPVTLGEFRSEILISDVTSMGEGVYGPPMTNNLLTKDNTGIDDWYEVYPNIMHINLFIRNVDKEIDYLTGTEKSFYLGQAYGLRAYYYFYLYRTFGGVPLETEPKVTEGSIDITQLYKARSTPEETLEFIKEDINKSEAFFNESDKKMSNQYEWSYHATELLKAKIYMWSAKVTTGLPDDDIAGDHIATLTAVDPNNSDLLTAKKALLNLVNQQFELLPNFADLWTPEGKKNKEIIFALCFNKNELTNWGANWFYNVALFTNATDLDGNKYGPDPLKLLTAGPLRYEYKVPFIEIYDKEDTRLDATFFQYMFEGKIRGACWKKLMGHTDGGTHYYDSDVPVYRYADVLLMLAECENGLGAPDKCAAYINEVRKRAYGDKFEQHKYIAGDYADNEWAILQERDKEFVGEGSRWFDLLRLRDSNGKPFVFSVKAHYGSSLPILTEDKAYMMLWPVNVEVLNGDPEIKQTPGYE,not soluble
8,MGSDKIHHHHHHLSSPMRLSFLAAAFAAPLVVSASGAGAAEPTRYPLTLQTCGQTITFDRAPSRVVSIGQSSTEILYLLGLADKVVGTALWVGPVIAGYEAVDAKVPRLADNDPSFESVVGKKPDLVTNQYQWQVGPKGVVATNAQFAELKIPVYTSPADCVGKDNSEGGDGLRTSRFTTDLIYQEIEDLARIFDVSERGEVLINDLKAREAAAKKKIASLRSPVSAVFWFSSADLDIDPYVAGSDGAPGYILSVLGITNVIKSEEEWPTVGWETIAKANPTIIVAGEMTRRRFPVDDIAVKKTFLANDPVTRLMPAVQEGRIVPLDAQAMNPTIRTIEGIEVVADAVIKAGLAQ,not soluble
9,MGSDKIHHHHHHLTDAEIDASFNPYQAGPTTSPGITPGMKIDKSNAQKFRDIIDPATYALIEQGKLEFPVEETHSIALHPNYIAATKKHSSQVKLGSATGTIEGYVAGRPFPGKPDKSDPRAGEKLAFNYKYAQIVGDSGRIYPFIWQYKDARSGKVERQLEFDFNFLSFKHRTTQLPTADIEPNPSKFYRGIYLKVLSPQDLKNTQLLIQRFDDDTKLDDSYLYLGFQRRVRRLATGQTTDSFLGSDLMIEDFEGYNGRVPDMDWKYVETKVMLLPVYRHSEWKKTEPRDQMGYGQVQFDGQAQCFQNIPWSLRVVHVIEGVPVESRNPIGKRILYMDAQTSIFPIINMYDRKGALWKRWAIGFSDSAYHAPANQAAGIAIYTSASMLDVQAQHCTTLQLRMISDPALSPPSIFSVQNLRGGD,not soluble
10,MGSDKIHHHHHHMADNTDNLNSFRALALQVTCHAVNQATDRHEARSLMQNSINRLAQQIAASIAFIGFDCRLIVLPEYFLTGFPMGDSLAGWAEKACIEMAGAEYEALGKIAQKHKIFLAGNAYEVDPNFPGLYFQTCFILDPSGSIVLRYRRLNSLFAPTPHDVWDKYLDCYGLEGVFPVAKTAIGNLAALASEEILYPEVARCLAMRGAEIFVHSTSEVYNKNLTPKDAAKITRAVENMAYVVSANTAGIANIAIPIASADGGSKIIDHRGIVLAETGAGESMAAFAEIDLGALRRDRRRPGLHNLLARQRFELYAESYHQSHFYPANTMLEGEIDRKHFLQTQQATIDRLAQLGII,not soluble
11,MGSDKIHHHHHHMAERLGISIRSIYRDIDSLRAQGVRIDASAGLGFQLKEDILLPPVTFNENEAEALFLALEWLKDVPDQAMKSAAVSIYSKLYAVLPEHRKYLIDDMTLGVTHYWHPVDEALVEQVRLAIRKQVKIKVDYCDEHKRISQRSLWPFALGYLHDKVVLAAWCELRQAFRHFRIDRIHDLQMSEEIYPEFKKHLFQRWWKQEMQRTTDKN,not soluble
12,MGSDKIHHHHHHMAETSIEWTDVTWNPVAGCTVLTAGCTNCYAMRMAARLEAMGVEKYAGLTRKSGGRAKWTGRIFLDRKALSIPASWSKPRRVFVNSMSDLFHSDVPTDFISDVWKVMAQTPRHTYQILTKRPDRMVEIVPGLAKLRNVWLGTSVEDARVIYRIDKLRQVPAAVRFVSFEPLIGSVSGAGLRNIHWAIVGGESGPKARSMDPAWVDEIESMCRDQGAAFFFKQWGGKNKKAAGRTLNGRLYDEMPAPSMP,not soluble
13,MGSDKIHHHHHHMAGVILLLMGEGLACAHDTALLDKAGRLMASRDYAAAYALLEPVESEYSGDPAYDMLFGLAAIDSGHVTRGVFALERVLAVQPYNGNARAQIARAYFLLGEQEAARAEFRNVLNQQPPEEITQVINRYMSAIDKAQGLTTAFSAYLEGGVGHDSNVNSATAASSVTVAVPALGGLIVDIGLDRQARESSDNYTNLAGGISFRTPLARRFALFAGINASQRLNRHQDAFDLGMLDANVGLSYRQHRDTYTVAAQANSLSLDDQTYRRAYGINMQWQRDIDTKNQVNLFAQVSRLAYPDNRIRDADRYIVGGGWAHVFDGDLTPLLFVSGYGGKEQARNEYADFLSYRVHGVRSGGQLTLRPNLVAFTTLGYENRRHDEPETFPFLFATREDKQLDASVGLRYLPGYNWIIKPQFTFIRNDSTVELYSFDRYMVSVSVRREFNW,not soluble
14,MGSDKIHHHHHHMAHVGLAMHFRRDPNDRRKELTVSRFIEVVHKNAVASRNTADAFIKEMLHYNIAEYVAGGDGRTHPLQPTAATIERFTGWVTAHLRTLDHIDGGDRLGRYLDRPDMLATLQPLIADGLLASKPVREPHQTFSLFIWLNNGGIVMDWLMSGIDPDHAGLERIPTSVVSIGDFAKWLKLSRTHLGRKLRTAEELGSIGWLGQRGHSVMWVSHGFYEEYMTVQAAKLAVVDNAFKACFPPSQGDD,not soluble
15,MGSDKIHHHHHHMAIILGGMVPRPPWKYRLLAAIHAHRNAGDPGADPLVRRAVERLVAVTSRVVFGVEKPGWITSGASEGNLLALYTLREEGYRRVVAFDTSHYSIKKSALTLSMELDLLPTHGGRPRLDLLERRITPDSVVVATVGTTQEGLVDPVEEIAGVAESVGAAVHVDAAYGGYIARFLTGKARFRLEPPVMTVVVDAHKIPEAPPPAGVILASKQKLLDNLWFESPYIPTGRQFGILGTRPGGPIVAAWRRVEDLERNPGFPRLASILMRRLRKTLKALERLGYETPVTPDLPVACATHPRLGEVLERLKASGVRVYRCRSPKPCLHVTNYGRLCRARLGSSRSPRGCLRKPLGASLGNPGVTGLGL,not soluble
16,MGSDKIHHHHHHMAILQLGMAFDADAFSASVIGIAADVGSHDSGVHRHGKGQLLYAPQGCITFAWEDAIGILPPTKAVWIPPHTPHRAVMTNVVAYRSLYFDCSRIVAPASVTMVDVNPLLKALIDKMAFWPWDTPEASMTHSCALFWEEFYAARCHSFRLTIPVDRRFHGFRQQLFRPEFLPPDIDSLAATIGASTKTVTRLFKRDTGMSYQEWRQQWRLLKAIELLSGALPVSEVGFRLGFSSDSAFIAFFRKQTGKTPRHFMQG,not soluble
17,MGSDKIHHHHHHMAIVRTVLGDITPDQAGSTLTHEHIRYAYPGCELDHRCVWDFDFVAEDVGKQFEEMREGCGIKTVVELTPPEIGRHPELFAQIARRSGMNIVATTGFFPEANAMGIPFHWRRQRKEDVVNMLIRDLTEGMIYDGQKTPYRAGILKAATGSLTAKTRTPVNEKGRRIGNVETHVISAIAAAQREVGCAINTHTQPLDYAVCNPGIELLDELEEGGADPTKVIIGHAFVHPNIDQLKAICERGASVQVDHIGIPWQNDSRAQLDELIAVAMCQLADLGHLDKLVVSYDKFFSHARGPVTEEEPEQLNELVPNDYIMTEFAPRLERKGFGARELHQVMVENPKRLLAF,not soluble
